B1: Tlr2: N414Q/N442Q (protein)
parent chain: MLRALWLFWILVAITVLFSKRCSAQESLSCDASGVCDGRSRSFTSIPSGLTAAMKSLDLSFNKITYIGHGDLRACANLQVLILKSSRINTIEGDAFYSLGSLEHLDLSDNHLSSLSSSWFGPLSSLKYLNLMGNPYQTLGVTSLFPNLTNLQTLRIGNVETFSEIRRIDFAGLTSLNELEIKALSLRNYQSQSLKSIRDIHHLTLHLSESAFLLEIFADILSSVRYLELRDTNLARFQFSPLPVDEVSSPMKKLAFRGSVLTDESFNELLKLLRYILELSEVEFDDCTLNGLGDFNPSESDVVSELGKVETVTIRRLHIPQFYLFYDLSTVYSLLEKVKRITVENSKVFLVPCSFSQHLKSLEFLDLSENLMVEEYLKNSACKGAWPSLQTLVLSQNHLRSMQKTGEILLTLKNLTSLDISRNTFHPMPDSCQWPEKMRFLNLSSTGIRVVKTCIPQTLEVLDVSNNNLDSFSLFLPRLQELYISRNKLKTLPDASLFPVLLVMKIRENAVSTFSKDQLGSFPKLETLEAGDNHFVCSCELLSFTMETPALAQILVDWPDSYLCDSPPRLHGHRLQDARPSVLECHQAALVSGVCCALLLLILLVGALCHHFHGLWYLRMMWAWLQAKRKPKKAPCRDVCYDAFVSYSEQDSHWVENLMVQQLENSDPPFKLCLHKRDFVPGKWIIDNIIDSIEKSHKTVFVLSENFVRSEWCKYELDFSHFRLFDENNDAAILVLLEPIERKAIPQRFCKLRKIMNTKTYLEWPLDEGQQEVFWVNLRTAIKS
B2: Tlr2: swainsonine (protein)
parent chain: B1 parent chain
B3: Tlr2: tunicamycin (protein)
parent chain: B1 parent chain
B4: Tlr2: kifunensine (protein)
parent chain: B1 parent chain

Experiments:
[1] = confocal imaging of Flag tag, transfected NIH-3T3 cells; conditions: glycan lost; control: wild-type Tlr2-Flag
[2] = confocal immunofluorescence of Tlr2, RAW264.7 cells; conditions: control: untreated RAW264.7 cells

Row | Protein | localisation_or_trafficking ([2]; glycan changed form) | further results
1 | B1 | – | localisation_or_trafficking [1]: decreases
2 | B2 | changes | –
3 | B3 | – | localisation_or_trafficking ([2]; glycan lost): decreases
4 | B4 | changes | –

— publication PMC8416091
